Legend:
[1] = target: T1, GPC3 on the surface of hepatic cancer cell lines (SK-Hep1-GPC3 transfectant, HepG2, Huh7, Hep3B, SNU398) (human, UniProt P51654 25-554); test: FACS, SK-Hep1-GPC3 #9 cells, 1 ug antibody; lower left panel
T1 construct: Species is not restated for the cells (hepatic cancer cell lines, or SK-Hep1 transfected with pCMV/GPC3); also called glypican 3
Method: (§1) After detaching SK-Hep1-GPC3 cells by adding a TrypLE Express solution thereto, the detached SK-Hep1-GPC3 cells were put into a 50 mL tube and centrifuged at room temperature and 2000 rpm for 3 minutes to remove a culture medium, followed by washing with PBS once. The resultant was suspended using a FACS buffer, transferred to a round bottom tube, and centrifuged at room temperature and 2000 rpm for 3 minutes. A supernatant was removed, and the resultant was suitably dissolved using the FACS buffer so as to have a concentration of 4×10⁵ ea/mL. Then, a candidate antibody (1 μg) was added thereto at 4° C., and in an […] control group, a human IgG (1m, Sigma) was added instead of the candidate antibody. After 1 hour, the resultant was washed with the FACS buffer two times, a goat anti-human IgG antibody and FITC conjugated were added thereto at an amount of 1 μL per sample and bound thereto at 4° C. for 30 minutes. After collecting cells by centrifugation at 2000 rpm for 3 minutes, the cells were re-suspended by adding a fixation buffer (500 μL), and measured using a FACS calibur (FIG. 5).

[2] = target: T1, GPC3 on the surface of hepatic cancer …; test: FACS, HepG2 cells, 1 ug antibody; lower left panel (Human naive library)
[3] = target: T1, GPC3 on the surface of hepatic cancer …; test: FACS, SK-Hep1-GPC3 cells, 1 ug antibody; lower right panel
Method: as §1

[4] = target: T2, recombinant human GPC3 (Cat. No. 2119-GP-050, R&D systems) purified from HEK293 cells (human, UniProt P51654 25-559); test: SPR, Biacore T-200, GPC3 immobilised on CM5 chip, antibody flowed 0.078-5 nM
T2 construct: Bought protein
Method: Quantitative binding capacity (affinity) of GX102 and GX270 clone antibodies, purified anti-GPC3 antibodies, to recombinant human GPC 3 was measured using a Biacore T-200(GE Healthcare, U.S.) biosensor. After immobilizing GPC3 (Cat. No. 2119-GP-050, R&D systems) purified from HEK293 cells onto a CM5 chip (GE Healthcare) to an Rmax of 200 using an amine-carboxyl reaction, the GX102 or GX270 antibody sequentially diluted in a HBS-EP buffer solution (10 mM HEPES, pH7.4, 150 mM NaCl, 3 mM EDTA, 0.005% surfactant P20) was flowed at a flow rate of 30 μL/min in a concentration range of 0.078 nM to 5 nM for an association time of 120 seconds and a dissociation time of 1800 seconds. Dissociation of the antibody bound to GPC3 was induced by flowing 10 mM Glycine-HCl (pH1.5) at a flow rate of 30 μL/min for 30 seconds (Table 3). Affinity was obtained as kinetic rate constants (Kₒₙ and Koff) and an equivalent dissociation constant (KD) using a Biacore T-200 evaluation software (Table 4).

[5] = target: T1, GPC3 on the surface of hepatic cancer …; test: FACS, HepG2 cells, 1 ug antibody; lower right panel

B1: clone GN337 (scFv, V domains shown)
VH: EVQLVESGPGLVKPSQTLSLTCTVSGGSVSSGGYHWNWIRQHPGKGLEWIGYIFNSGNTDYNPSLRSRLTISQDTSKNQFSLKLSSVTAADTAVYYCARHRSRLLRWFDYWGQGTMVTVSS
VL: DVVLTQSPSSLSAFVGDRVTITCQASQDIRKYLNWFQQKPGKAPKLLIYDASTLETGVSSRFSGSGSGTHFNLVISSLEPEDSATYYCQQHDFVPRTFGQGTKLEIKR
notes: scFv library clone tested as culture supernatant
Mean, FL2-H [1]: 3.81 | Mean, FL2-H [2]: 30.8

B2: GX102 clone antibody (purified anti-GPC3 antibody) (antibody, V domains shown)
VH: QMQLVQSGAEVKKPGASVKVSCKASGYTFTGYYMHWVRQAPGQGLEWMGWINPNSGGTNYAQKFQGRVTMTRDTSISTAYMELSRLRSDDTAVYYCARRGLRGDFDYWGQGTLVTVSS
VL: GQSVLTQPPSASETPGQKVTISCSGSSSNIGTNHVFWYQQLPGTAPKLLIYRNNLRPSGVPDRFSGSKSGTSASLAISGLRSEDEADYYCAAWDDSLSWVFGGGTKLTVLG
notes: Purified antibody; also called GX102 antibody; GX102 candidate antibody
Mean, FL2-H [3]: 317 | Kd [4]: 0.0092 nM | Mean, FL2-H [5]: 18.7

B3: clone GX122 (scFv, V domains shown)
VH: EVQLVESGAEVKKPGASVKVSCKASGYTFTSYYMHWVRQAPGQGLEWMGIINPSGGSTSYAQKFQGRVTMTRDTSTSTVYMELSSLRSEDTAVYYCARDGGSSPDIWGQGTMVTVSS
VL: SYELTQPPSVSVSPGQTARITCSGDALPKKYAYWYQQKSGQAPVLVIYEDKKRPSEIPERFSGSSSGTMATLTITGAQVDDEADYYCYSIDRSGSRGVFGGGTKLTVLG
notes: as for B1
Mean, FL2-H [1]: 11.6 | Mean, FL2-H [2]: 52.2

B4: GX270 clone antibody (purified anti-GPC3 antibody) (antibody, V domains shown)
VH: QVQLVQSGAEVKKPGASVKVSCKTSGYTFTSSYMHWVRQAPGQGLEWMGIINPNSRGTNYAQKFQGRVTMTSDTSISTAYMELSSLISDDTAVYYCASSSGDYPDYWGQGTLVTVSS
VL: SYELTQPPSVSVSPGQTARIACSGDALPKHYAYWYQQKSGQAPVLVVYEDKKRPAGIPERFSGSSSGTVATLTISGAQVEDEAHYYCYSTDTSGNHRVFGGGTKLTVLG
notes: Purified antibody; also called GX270 antibody; GX270 candidate antibody
Mean, FL2-H [3]: 174 | Kd [4]: 0.07 nM | Mean, FL2-H [5]: 14.5
